The target in assay [1] is recombinant gp120 from HIV-1(ADA) strain (HIV-1 (ADA)). The experiment in a line: ELISA. A general note: An ELISA detects its analyte on a solid surface through an enzyme-linked reagent.
The target is the same in assay [2]. The experiment in a line: SPR. On the technique in general: Surface plasmon resonance follows binding to a sensor surface in real time, without labels.
For assay [3], the target named is recombinant gp120 from HIV-1(IIIB) strain, glycosylated (HIV-1 (IIIB)) (UniProt P04578). The experiment in a line: SPR.
The target of a further assay is GRFT D30A (red algae) (UniProt P84801). As to the kind of experiment: AUC.
For assay [4], the target named is recombinant gp41 protein from HIV-1(HxB2) (HIV-1 (HxB2)) (UniProt P04578). The experiment in a line: SPR.
The target of a further assay is GRFT D112A (red algae) (UniProt P84801). The experiment in a line: AUC.
Assay [5] has as its target monomeric gp120 derived from HIV-1/JR-FL (HIV-1 (JR-FL)). The experiment in a line: SPR.
For assay [6], the target named is trimeric gp140 derived from HIV-1/JR-FL (HIV-1 (JR-FL)). As to the kind of experiment: SPR.
The target in assay [7] is wild-type griffithsin (GRFT) (red algae) (UniProt P84801). The experiment in a line: AUC.

Among the data in publication PMC3474606 are fold reduction in binding against wild-type GRFT, Kd and stoichiometry N values, retold here.

Turning to “GRFT D30A (from UniProt P84801 1-121) (natural protein)”, in [1], the fold reduction in binding against wild-type GRFT came to 10 fold. Moreover, the Kd turned out to be 123 pM in assay [2] and 156 pM in assay [3]. Besides, the stoichiometry N with GRFT D30A (red algae) amounted to 2.

Turning to “GRFT D70A (from UniProt P84801 1-121) (natural protein)”, the fold reduction in binding against wild-type GRFT in assay [1] came to 10 fold. Further, the figures for the Kd in [2], in assay [3] and in [4] were 194 pM, 245 pM and 165 pM, respectively.

On to “GRFT D112A (from UniProt P84801 1-121) (natural protein)”, for which the fold reduction in binding against wild-type GRFT in assay [1] stood at 10 fold. The Kd in [2] came out at 122 pM; in [3], 142 pM; in [4] it was 131 pM. Besides, in the assay with GRFT D112A (red algae), the stoichiometry N is 2.

“wild-type griffithsin (GRFT) (from UniProt P84801 1-121) (natural protein)”: the Kd is 73.2 pM in [2]; 111 pM in assay [5]; 152 pM in assay [6]; 72.7 pM in assay [3]; 44.9 pM in [4]. Further, the stoichiometry N in [7] worked out at 2.

Broadly, the Kd is the concentration at which binding is half-saturated. For orientation: stoichiometry N means a count of units in the complex or per binding partner.
